This note sets out measurements from patent US20090186040A1 (published 2009).

The target in the assay is T1, BLyS (B-lymphocyte stimulator) (UniProt Q9Y275 134-285).
T1 construct: Endogenous BLyS in the serum of human SLE patients; The complex with atacicept was detected by sandwich ELISA
In words: ELISA of atacicept/BLyS complex in serum of dosed SLE patients (subcutaneous, Study 1). On the procedure: Pharmacokinetics were assessed by measuring serum levels of free atacicept (Table 2a), atacicept/BLyS complex (Table 3a), and composite atacicept (defined as free atacicept+atacicept-BLyS complex, Table 4a). Serum levels of each of these were quantified using an enzyme-linked immunosorbant assay. Serum was incubated with a biotin-conjugated mouse mAb specific for atacicept (free or total atacicept detection) (ZymoGenetics, Inc., Seattle, Wash.) or biotin-conjugated goat polyclonal antibodies specific for either BLyS or atacicept (atacicept/BLyS complex detection) (R & D Systems, Minneapolis, Minn.), immobilized on a streptavidin-coated microplate (Adaltis, Montreal, Quebec). […] In all three assays, atacicept serum levels were detected and quantified using standard […] methods, i.e., after washing tetramethylbenzidine (TMB) was added as HRP substrate (Sigma-Aldrich, St. Louis, Mo.). The reaction was halted after 20 minutes using 0.5 M sulfuric acid and the absorbance recorded at 450 nm. […] All samples were measured in triplicate. […] The lower limits of quantification (LLOQ) of the assays were 15.6 ng/mL for free atacicept, 5 U/mL for atacicept-BLyS complex (1 U/mL corresponding to 1.82 ng/mL atacicept-0.44 ng/mL BLyS in a 3:1 molar ratio), and 25 ng/mL for the composite analytes. […]
(In general: In an ELISA, binding on a coated surface is turned into a signal by an enzyme label.)

T1 sequence (Q9Y275 134-285 limits assumed): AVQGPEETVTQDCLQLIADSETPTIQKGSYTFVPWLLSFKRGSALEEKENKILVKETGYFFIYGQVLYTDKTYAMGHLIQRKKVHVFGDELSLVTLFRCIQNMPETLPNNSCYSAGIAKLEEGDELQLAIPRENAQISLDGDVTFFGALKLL

B1: atacicept (Fc fusion)
chain: AMRSCPEEQYWDPLLGTCMSCKTICNHQSQRTCAAFCRSLSCRKEQGKFYDHLLRDCISCASICGQHPKQCAYFCENKLRSEPKSSDKTHTCPPCPAPEAEGAPSVFLFPPKPKDTLMISRTPEVTCVVVDVSHEDPEVKFNWYVDGVEVHNAKTKPREEQYNSTYRVVSVLTVLHQDWLNGKEYKCKVSNKALPSSIEKTISKAKGQPREPQVYTLPPSRDELTKNQVSLTCLVKGFYPSDIAVEWESNGQPENNYKTTPPVLDSDGSFFLYSKLTVDKSRWQQGNVFSCSVMHEALHNHYTQKSLSLSPGK
modifications: Fc-linked homodimer in the drug; one chain is given.
notes: also called TACI-Ig; TACI-Fc5
On to B1, for which the binding result is listed as “binds”.
